# Data: the DeepSol protein solubility set
# Assay: soluble on expression in E. coli; label from the status in PepcDB or PDB records
row,Sequence,soluble on expression in E. coli
1,MAHHHHHHMAIACDSPVITLYKPRENGMIMPCHPEMSTVENIGQITDAHRLVPTAVRFSEDSQWVISAGEDETLAVSSVRKLKRVFVCTEFITRRHCMAFMNTFTSLCILASPPETSVLIIAACATDGTVVQWVVNPATSRSSYTKKLQLHLGALVAMDIMRDGTGS,not soluble
2,MPLLYLNTRECRWYLMGEGEMKKIAAISLISIFLISGCAVHNDETSIGKFGLAYKSNIQRKLDNQYYTEAEASLARGRISGAENIVKNDAAHFCVTQGKKMQIVDLKTEGAGLHGVARLTFKCGE,not soluble
3,MASFPFLMTPETMNKLVTPNSASISSSSSSPSTSTSFSIDTLLSNPLAGIPQLHNFQDPFGAVGAAAAASALPWQFHPANYPFFSMLCGPLMPPFMAPYHHQHYASRRKRRHRTIFSEEQLNILETTFSTTHYPDATTREELAVQCSLKEERVEVWFKNRRAKERKQKKDDSRTSKHSGDDSECDESDEDTRKVKRIKRENSSGKETSSPESKASLKTSHSENLVLEPC,not soluble
4,GMPRPKLKSDDEVLEAATVVLKRCGPIEFTLSGVAKEVGLSRAALIQRFTNRDTLLVRMMERGVEQVRHYLNAIPIGAGPQGLWEFLQVLVRSMNTRNDFSVNYLISWYELQVPELRTLAIQRNRAVVEGIRKRLPPGAPAAAELLLHSVIAGATMQWAVDPDGELADHVLAQIAAILCLMFPEHDDFQLLQAHA,soluble
5,MPNEQKRFVTGPAGRLETVVTLPEGAPRGLAIVAHPHPLYQGSMDNKIVYILSRAFIEQQYITVKFNFRGVGASEGSYAEGKGEIEDVMAVTQAMREQYDTGPEPLPLTLAGFSFGGAVQAHVAQQLKPSRLVLVAPSVERLQAPPVVDHARHILVIQGDQDTIVPLQSILNWAAPQTLPVTVIPGAEHFFHGKLHVLKNVILQSCSISQAATSLYP,not soluble
6,RSFAKDLEAKQKMSLTSWFLVSSGGTRHRLPREMIFVGRDDCELMLQSRSVDKQHAVINYDASTDEHLVKDLGSLNGTFVNDVRIPEQTYITLKLEDKLRFGYDTNLFTVVQGEMRVPEEALKHEKFTIQLQLSQKSSESELSKSASAKSIDSKVADAATEVQHKTTEALKSEEKAMDISAMPRGTPLYGQPSWWGDDEVDEKRAFKTNGKPEEKNHEAGTSGCSIDAKQVEEQSAAANEEVLFPFCREPSYFEIPTKEFQQPSQITESTIHEIPTKDTPSSHITGAGHASFTIEFDDSTPGKVTIRDHVTKFTSDQRHKSKKSSPGTQDLLGIQTGMMAPENKVADWLAQNNPPQMLWERTEEDSKSIKSDVPVYLKRLKGNKHDDGTQSDSENAGAHRRCSKRATLEEHLRRHHSEHKKLQKVQATEKHQDQAVVFGVDDNQDYNRPVINEKHKDLIKDWALSSAAAVMEERKPLTTSGFHHSEEGTSSSGSKRWVSQWASLAANHTRHDQEERIMEFSAPLPLENETEISESGMTVRSTGSATSLASQGERRRRTLPQLPNEEKSLESHRAKVVTQRSEIGEKQDTELQEKETPTQVYQKDKQDADRPLSKMNRAVNGETLKTGGDNKTLLHLGSSAPGKEKSETDKETSLVKQTLAKLQQQEQREEAQWTPTKLSSKNVSGQTDKCREETFKQESQPPEKNSGHSTSKGDRVAQSESKRRKAEEILKSQTPKGGDKKESSKSLVRQGSFTIEKPSPNIPIELIPHINKQTSSTPSSLALTSASRIRERSESLDPDSSMDTTLILKDTEAVMAFLEAKLREDNKTDEGPDTPSYNRDNSISPESDVDTASTISLVTGETERKSTQKRKSFTSLYKDRCSTGSPSKDVTKSSSSGAREKMEKKTKSRSTDVGSRADGRKFVQSSGRIRQPSVDLTDDDQTSSVPHSAISDIMSSDQETYSCKPHGRTPLTSADEHVHSKLEGSKVTKSKTSPVVSGSSSKSTTLPRPRPTRTSLLRRARLGEASDSELADADKASVASEVSTTSSTSKPPTGRRNISRIDLLAQPRRTRLGSLSARSDSEATISRSSASSRTAEAIIRSGARLVPSDKFSPRIRANSISRLSDSKVKSMTSAHGSASALKTTRLQSAGSAMPTSSSFKHRIKEQEDYIRDWTAHREEIARISQDLALIAREINDVAGEIDSVTSSGTAPSTTVSTAATTPGSAIDTREEVGDLHGEMHKLVDRVFDESLNFRKIPPLVHSKTPEGNNGRSGDPRPQAAEPPDHLTITRRRTWSRDEVMGDNLLLSSVFQFSKKIRQSIDKTAGKIRILFKDKDRNWDDIESKLRAESEVPIVKTSSMEISSILQELKRVEKQLQAINAMIDPDGTLEALNNMGFPSAMLPSPPKQKSSPVNNHHSPGQTPTLGQPEARALHPAAVSAAAEFENAESEADFSIHFNRFNPDGEEEDVTVQE,soluble
7,MSKKEETIFFRIEKENRPESSKKEEDENSTEEMTTLNHASVTLDHSAFAIADKDGFKMYQLNPLHFRMYKDYVIKVGPVRLVKQDGNSRRIIYVSALAGGRFAQNNLMIFDVARNEEYFEITTPSRYGPITNIHVSPNRLVALNPNRMFVWTYPDDIKQIRSEDIRSNPKGISAMSYDPTTAACYLAYPGFKTGSVQIMHLNALTARESKSPIVIEAHLTDIAQVALNCQGTLVATGSTKGTVIRVFDARTKGPLYELRRGTVQAHLQCMAFSPCSSYLAVASDKGTLHMFGIRDAEPQKKKNVLERSRGSSSIVKIQLDRPVMAIGFGKIPETPKNLQSIIAICADATYWRHEFYKDNTGNFTSHFGSYDELIEVANDSSFFRTPVE,not soluble
8,MAVGLGPLPALHPVPGFELGISSAGIKRPGRKDVVVMRCAEGSSVAGVFTLNAFCAAPVILAKQRVQGTVRYLLTNTGNANAGTGEPGLVAARRTCEALAQLTGVDASAVLPYSTGVIGEPLPVEKIEGALQAALDDLSVDNWAAAATGIMTTDTLPKGASRQFTHDGVTITVTGISKGAGMIRPNMATMLGYIATDAKVSQSVLQDLIRDGANKSFNRLTIDGDTSTNDCCMLIATGQADLPEITEAKGLLFEALKKAVFDVCMEVAQAIVRDGEGATKFVTVEVNGGGNHQECLDVGYAVAHSPLIKTALFASDPNWGRILAAVGRAGVPDLDVSKIDVFLGGVCIASQGCRATTYTEEQGSAVMAEAEITIRIELGRGDCSETIWTTDLSHEYVKINAEYRTLEHHHHHH,not soluble
9,MDAQTFKTAIVRRRLVDVLMNPELKATLVLKNGLVINVVTREIYPADVAVYDEYILKVGDASDLIGPETEVVDLQGKYYVSPGFIDSHMHFESSMLTISEFSRLSIPSGTTTLVADPHEIGNALGPVGIKAMAEETKVVPNRVYLVVPALTPDCPGLETAGYDITSRDMPEILNYPNVIGIGELQGFSNAKYVYKYTPEIITDLIASTTYAKSIGKIVDGNAPELFGSELAAHLIAAGTEASCHETTTKEECVEKLRYGMYVFMREGSTQKNMAECIRAVTEEGLDSRRLIGATDDMVAEDLAKNGHMNWVVARIIKQGIDPVEAIQMVTINPATYFGLKHVGVLAPGKMADIVVISDLMDMKVEKVYIGGKLVAEKGKMVVNIPKYTYPEEVKHSVKCKPVTAEALEIKATGSNAVVRTIGLIPDQNLTESFEFTVPVSGGVAQPDLTQDVLPIAVVERYGRNGSIGRAFVRGFGLKGGAFAESVSHDAHNIIVVGTSYQDMALAVNRVIEMGGGVAVVKNGRVLGDLRLPVGGLITDELDGYELSRKIAELHRLTAVELGCTVHAPFMHLSFLALTTSPKWKITDQGLIDVNSFAIIPPVK,soluble
10,MSGEDDYNSDDEANKNLSKKELQELKRKQQKSKKKKESKKRAKATKQAEIETREEPKKEEENGDDLDVEIDYIGETIEIEPDNPHAQYFSAIFDAFKISTDSEDGFSYGHHVSKGEKKDDLGKVGQAERIIQEEMEERAKENTEEKLSRRKLRISLQPSIAKLKETTLRADVVEWADVTSRDPYLLVAMKSYRNSVPVPRHWNAKRKYLAGKRGFERPPFELPDFIKRTGIQDMREALLEKEESQSLKSKMRERARPKLGKIDIDYQKLHDAFFKWQTKPAMTKMGELYYEGKEMEAMMRDKKPGEMSDELRIALGMPIGSNAFKFPPPWLIAMQRYGPPPSFPHIKIPGLNAPIPEGCAFGYHAGGWGKPPVDEYGHPLYGDVFGLAAPAFEPEDESQIERRYWGEIGSDESSDEEESEEEEHADDDDADVEGGFQTPAPVEGMITPSGMTTGITGIETPDTIELRKGKESSVLGTDTPAAAYHIIPEKKNERIGGQMMASSHTYDLSKKHAVRDDGVQISLDPESIDMDEQGLAARYEEQLRKQKHRDDDDEDREDLTDMVAEHAAKQNRKRKVQDDKKNKTSSSSSSGSSGKKHKDFKF,not soluble
11,TAGFYINSEISDYFWIKTEFNYVNRGYTHKEAGKTLKTNYYCIDVYPVTPAFHYKGAQIFAGPSVTLLVASNRDTLIGGEVKKIADNKLDGINRYDIGIMAGVEYEFNFGLNIGVRMVRGFTSLYEPVNSIQTQWFNQTYLFTLGYSI,not soluble
